Laboratory results reported in patent US20220389118A1 (Chugai, published 2022).
Changes are numbered by the printed parent chain.

B1: IL6R-BP488/IL6R-L (antibody, human IgG1, kappa)
heavy: QVQLQESGPGLVKPSETLSLTCAVSGHSISHDHAWSWVRQPPGEGLEWIGFISYSGITNYNPSLQGRVTISRDNSKNTLYLQMNSLRAEDTAVYYCARSLARTTAMDYWGEGTLVTVSSASTKGPSVFPLAPSSKSTSGGTAALGCLVKDYFPEPVTVSWNSGALTSGVHTFPAVLQSSGLYSLSSVVTVPSSSLGTQTYICNVNHKPSNTKVDKKVEPKSCDKTHTCPPCPAPDLLGDDSVFLFPPKPKDTLMISRTPEVTCVVIDVAEEDGEVKFNWYVDGVEVHNAKTKPREEQDNSTYRVVSVLTVLHQDWLNGKEYKCKVSNKALPRPIEKTISKAKGQPREPQVYTLPPSRDELTKNQVSLTCLVKGFYPSDIAVEWESNGQPENNYKTTPPVLDSDGSFFLYSKLTVDKSRWQQGNVFSCSVMHEALHNHYTQESLSLSP
light: not shown
notes: copies: 2 + 2
B2: IL6R-BP551/IL6R-L (antibody, human IgG1, kappa)
heavy: B1 heavy with D235E, A269S, E274D
light: not shown
notes: copies: 2 + 2
B3: IL6R-BP556/IL6R-L (antibody, human IgG1, kappa)
heavy: B1 heavy with D235E, A269G
light: not shown
notes: copies: 2 + 2
B4: Fv4-F1380 (antibody, human IgG1, kappa)
heavy: QVQLQESGPGLVKPSETLSLTCAVSGHSISHDHAWSWVRQPPGEGLEWIGFISYSGITNYNPSLQGRVTISRDNSKNTLYLQMNSLRAEDTAVYYCARSLARTTAMDYWGEGTLVTVSSASTKGPSVFPLAPSSKSTSGGTAALGCLVKDYFPEPVTVSWNSGALTSGVHTFPAVLQSSGLYSLSSVVTVPSSSLGTQTYICNVNHKPSNTKVDKKVEPKSCDKTHTCPPCPAPELLGGPSVFLFPPKPKDTLMISRTPEVTCVVVDVSHEDPEVKFNWYVDGVEVHNAKTKPREEQYNSTYRVVSVLTVLHQDWLNGKEYKCKVSNKALPAPIEKTISKAKGQPREPQVYTLPPSRDELTKNQVSLTCLVKGFYPSDIAVEWESNGQPENNYKTTPPVLDSDGSFFLYSKLTVDKSRWQQGNVFSCDVLHEALHSHYTQKSLSLSP
light: DIQMTQSPSSLSASVGDSVTITCQASTDISSHLNWYQQKPGKAPELLIYYGSHLLSGVPSRFSGSGSGTDFTFTISSLEAEDAATYYCGQGNRLPYTFGQGTKVEIERTVAAPSVFIFPPSDEQLKSGTASVVCLLNNFYPREAKVQWKVDNALQSGNSQESVTEQDSKDSTYSLSSTLTLSKADYEKHKVYACEVTHQGLSSPVTKSFNRGEC
notes: Variant of Fv4-LS; copies: 2 + 2
B5: Fv4-F1381 (antibody, human IgG1, kappa)
heavy: B4 heavy with D428E
light: B4 light
notes: as for B4
B6: Fv4-F1382 (antibody, human IgG1, kappa)
heavy: B4 heavy with D428K
light: B4 light
notes: as for B4
B7: Fv4-F1383 (antibody, human IgG1, kappa)
heavy: B4 heavy with D428R
light: B4 light
notes: as for B4
B8: IL6R-BP183/IL6R-L (antibody, human IgG1, kappa)
heavy: B1 heavy with L236Y, D239G, I266V, A269S, E270H, D298Y, K328A, R332K
light: not shown
notes: copies: 2 + 2
B9: IL6R-BP211/IL6R-L (antibody, human IgG1, kappa)
heavy: B1 heavy with D239G, I266V, A269S, E270D, D298Y, K328A
light: not shown
notes: copies: 2 + 2
B10: IL6R-BP197/IL6R-L (antibody, human IgG1, kappa)
heavy: B1 heavy with L236Y, I266V, A269S, E270D, K328D, R332K
light: not shown
notes: copies: 2 + 2
B11: IL6R-BP204/IL6R-L (antibody, human IgG1, kappa)
heavy: B1 heavy with D239G, I266V, A269S, E270H, D298Y, K328A
light: not shown
notes: copies: 2 + 2
B12: IL6R-BP196/IL6R-L (antibody, human IgG1, kappa)
heavy: B1 heavy with D235E, L236Y, D239G, I266V, A269S, E270D, D298Y, K328A, R332K
light: not shown
notes: copies: 2 + 2
B13: IL6R-BP210/IL6R-L (antibody, human IgG1, kappa)
heavy: B1 heavy with D235E, I266V, A269S, E270D, D298Y
light: not shown
notes: copies: 2 + 2
B14: IL6R-BP188/IL6R-L (antibody, human IgG1, kappa)
heavy: B1 heavy with I266V, A269S, E270D, D298Y, R332K
light: not shown
notes: copies: 2 + 2
B15: IL6R-BP186/IL6R-L (antibody, human IgG1, kappa)
heavy: B1 heavy with L236Y, I266V, A269S, E270H, K328A, R332K
light: not shown
notes: copies: 2 + 2
B16: IL6R-BP199/IL6R-L (antibody, human IgG1, kappa)
heavy: B1 heavy with D239G, I266V, A269S, E270H, G273P, D298Y, K328D
light: not shown
notes: copies: 2 + 2

Molecular target: T1, human FcγRIa extracellular domain with C-terminal His tag (human, UniProt P12314 16-292)
T1 construct: extracellular domain
T1 sequence (P12314 16-292): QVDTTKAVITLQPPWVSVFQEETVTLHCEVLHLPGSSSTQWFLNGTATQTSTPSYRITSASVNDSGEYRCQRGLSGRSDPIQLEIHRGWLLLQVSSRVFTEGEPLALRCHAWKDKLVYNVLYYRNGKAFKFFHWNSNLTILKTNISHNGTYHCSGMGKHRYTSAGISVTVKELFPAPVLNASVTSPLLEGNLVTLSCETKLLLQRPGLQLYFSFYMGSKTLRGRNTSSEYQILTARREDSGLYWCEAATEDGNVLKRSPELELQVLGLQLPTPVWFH
Assay: SPR (Biacore)

Binder	Kd [nM]
B1	2.2
B2	32
B3	43

Molecular target: T2, human FcγRIIa type R extracellular domain with C-terminal His tag (human, UniProt P12318 34-217)
T2 construct: extracellular domain; also called FcγRIIaR; FcγRIIa(R)
T2 sequence (looked up): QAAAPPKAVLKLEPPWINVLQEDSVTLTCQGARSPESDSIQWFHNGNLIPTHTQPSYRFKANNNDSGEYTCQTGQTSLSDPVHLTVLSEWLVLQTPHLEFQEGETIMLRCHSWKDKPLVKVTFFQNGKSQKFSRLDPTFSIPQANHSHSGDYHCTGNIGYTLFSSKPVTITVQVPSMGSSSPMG
Assay: SPR (Biacore)

Binder	Kd [nM]
B1	74
B2	250
B3	300

Molecular target: T3, human FcγRIIa type H extracellular domain with C-terminal His tag (human, UniProt P12318 34-217)
T3 construct: extracellular domain; also called FcγRIIaH; FcγRIIa(H)
T3 sequence (looked up): T2 sequence (looked up) with R134H
Assay: SPR (Biacore)

Binder	Kd [nM]
B1	1600
B2	2800
B3	5800

Molecular target: T4, human FcγRIIb extracellular domain with C-terminal His tag (human, UniProt P31994 43-217)
T4 construct: extracellular domain
T4 sequence (looked up): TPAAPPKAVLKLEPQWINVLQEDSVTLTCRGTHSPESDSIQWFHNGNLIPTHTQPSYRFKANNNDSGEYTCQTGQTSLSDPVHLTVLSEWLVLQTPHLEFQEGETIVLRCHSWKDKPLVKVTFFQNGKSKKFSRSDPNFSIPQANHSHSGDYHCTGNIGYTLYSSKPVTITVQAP
Assay: SPR (Biacore)

Binder	Kd [nM]
B1	1.9
B2	6.4
B3	8.4

Molecular target: T4, human FcγRIIb extracellular domain with …
Assay: SPR (Biacore), ratio of KDs

Binder	KD(IIaH)/KD(IIb)	KD(IIaR)/KD(IIb)
B1	865	40.1
B2	436	38.1
B3	692	35.4

Molecular target: T2, human FcγRIIa type R extracellular …
Assay: SPR (Biacore), parent IL6R-B3/IL6R-L

Binder	KD(IIaR) parent/KD(IIaR) altered polypeptide
B1	14.8
B2	4.5
B3	3.7

Molecular target: T4, human FcγRIIb extracellular domain with …
Assay: SPR (Biacore), parent IL6R-B3/IL6R-L

Binder	KD(IIb) parent/KD(IIb) altered polypeptide
B1	1680
B2	482
B3	370

Molecular target: T5, human FcRn (human, UniProt P55899 24-297; P61769 21-119)
T5 construct: the construct is not described
T5 sequence (P55899 24-297 limits assumed, chain 1 of 2): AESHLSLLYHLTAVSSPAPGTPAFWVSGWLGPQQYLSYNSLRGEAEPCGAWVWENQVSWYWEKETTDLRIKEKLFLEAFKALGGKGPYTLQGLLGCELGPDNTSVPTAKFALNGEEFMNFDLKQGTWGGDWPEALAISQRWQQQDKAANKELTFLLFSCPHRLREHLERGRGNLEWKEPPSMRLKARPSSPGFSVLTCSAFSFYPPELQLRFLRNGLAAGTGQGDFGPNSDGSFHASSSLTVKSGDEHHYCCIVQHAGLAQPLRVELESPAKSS
T5 sequence (P61769 21-119 limits assumed, chain 2 of 2): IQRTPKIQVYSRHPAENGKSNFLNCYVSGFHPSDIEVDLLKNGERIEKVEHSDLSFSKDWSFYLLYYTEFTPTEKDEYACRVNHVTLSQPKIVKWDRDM
Assay: binding to FcRn at pH 6.0; method not stated

Binder	Kd [nM]
B4	73
B5	86
B6	130
B7	160

Molecular target: T6, human FcγRIIa type R (allotype R131) extracellular domain with C-terminal His tag (human, UniProt P12318 34-217)
T6 construct: extracellular domain; also called FcγRIIaR; FcγRIIa R type; not shown: His tag at the C terminus
T6 sequence (looked up): T2 sequence (looked up)
Assay: SPR (Biacore), antibody captured, FcγR analyte

Binder	Kd [nM]
B8	2600
B9	4100
B10	980
B11	4500
B12	3000
B13	1000
B14	1000
B15	960

Molecular target: T7, human FcγRIIIa type V (allotype V158) extracellular domain with C-terminal His tag (human, UniProt P08637 17-208)
T7 construct: extracellular domain; also called FcγRIIIaV; FcγRIIIa V type; not shown: His tag at the C terminus
T7 sequence (P08637 17-208 F176V): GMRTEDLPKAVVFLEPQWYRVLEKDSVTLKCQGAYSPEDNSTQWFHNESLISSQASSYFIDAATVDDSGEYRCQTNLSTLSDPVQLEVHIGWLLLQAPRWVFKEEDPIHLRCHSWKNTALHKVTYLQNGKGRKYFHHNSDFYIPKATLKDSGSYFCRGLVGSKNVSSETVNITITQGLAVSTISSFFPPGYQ
Assay: SPR (Biacore), antibody captured, FcγR analyte

Binder	Kd [nM]
B8	56000
B9	73000
B10	33000
B16	61000
B12	51000
